# In patent US9073989B2, “Antibiotic comprising an antibody mimetic, its preparation methods and uses thereof” (PROTEIN DESIGN LAB, LTD, priority 2011, dated 2015):
# “And” between values parts separate entries of the source, which are not always exact repeats. Identical values can stand only once. “Also recorded” adds a separate entry of the source. Like-named read-outs stand apart in the source and are kept apart here.
# Tests used:
# [1] = test system: vancomycin-resistant Enterococcus faecalis (ATCC 700802); type: cell-based; conditions: MH medium
# [2] = test system: multi-drug resistant Pseudomonas aeruginosa (isolated by West China Hospital, No. 13578); experiment: Minimum inhibitory concentration by agar dilution method; type: cell-based; conditions: for MIC: MH medium; for MIC in terms of molecular weight standard: Embodiment 3, converted from μg/ml
# [3] = test system: Nesseria meningitidis (No. 29332); experiment: In vivo protection of mice infected by fatal dose of Nesseria meningitidis; conditions: 1.5 mg/kg intravenous 1 hour after intraperitoneal fatal dose; for survival rate in 8 days: 10 mice per group
# Experimental: The mice were given an intraperitoneal injection of glucose solution of ferrous by 20 mg/kg, and 1 hour later an intraperitoneal injection of 0.5 ml of bacteria culture containing 1 share of Nesseria meningitidis cultrue solution (its CFU was 2.36×10^9/ml) and 1.5 share of 5% dry yeast solution. One hour later after being given intraperitoneal injection of fatal dose of the bacteria culture, the mice in experimental group were given an intravenous injection of the drugs and the mice in control group were given an intravenous injection of normal saline, all drugs were injected by 1.5 mg/kg), observation every 2 hours for 8 days, the death of mice as the positive results.
# [4] = test system: Nesseria meningitidis (No. 29332); experiment: Minimum inhibitory concentration by agar dilution method; type: cell-based; conditions: Embodiment 4, FIG. 6A, blood-chocolate medium with Columbia blood agar base
# [5] = test system: methicillin-resistant Staphylococcus aureus (ATCC BAA-42); experiment: as above; type: cell-based
# [6] = test system: Mycobacterium tuberculosis (the standard strains H37RV); experiment: In vivo protection of mice infected by Mycobacterium tuberculosis; parameters: species or system BalB/c mice; conditions: for weight of mice during experiment: during 5 weeks treatment; for lung by microscope (pathological section): 5 weeks treatment, magnification 200, FIG. 11
# [7] = test system: Nesseria meningitidis strain No. 29332; experiment: Inhibiting effect on growth of Nesseria meningitidis in liquid culture (growth curve, optical density); type: cell-based; conditions: 5 and 10 μg/ml, rabbit blood-chocolate medium, 37° C., hourly A595 nm, FIG. 4
# Experimental: The bacteria was strain No. 29332 Nesseria meningitidis (No. 29332 of bacteria Preservation Center in China, i.e. Center of Medical Devices of National Institute for the Control of Pharmaceutical & biological Products, SDA), two microlitres (μl) of bacteria solution (10^5 CFU/ml) was added in 10 ml rabbit blood-chocolate medium containing 50 mg beef extract, 100 mg tryptone, 50 mg NaCl, 30 mg K2HPO4 and 0.5-0.8 ml off fiber rabbit blood. Five groups were prepared. The first group was added 0.3 M NaCl+50 mM boric acid buffer fluid (i.e. blank preservative fluid for the novel antibiotic, by the same volume with the novel antibiotic solution in the group 4 and 5) as control. Penicillin sodium was added in the second group by 5 μg/ml. The novel antibiotic PMC-AM1 was added in the third group by 5 μg/ml. The novel antibiotic PMC-AM2 was added in the forth group by 5 μg/ml. The novel antibiotic PMC-AM1 was added in the fifth group by 10 μg/ml.
# Reactant liquid of the above five groups were respectively put into 100 ml conical flask, and cultured at 37° C. by 200 rpm 100 μl culture solution was sampled per hour and added onto 96-pore ELISA plate for measuring bacteria grown cloudiness by spectrophotometer (A595 nm) color comparison. The bacteria-growth curve was drawn up to compare the bacteriostasis efficacy of novel antibiosis.
# [8] = Embodiment 3, agar dilution, 37° C. 18-24 hours, FIG. 5
# [9] = Pseudomonas aeruginosa, Embodiment 3, agar dilution, 37° C. 18-24 hours, FIG. 5, read-out: MIC
# [10] = Embodiment 4, FIG. 6C, BM medium
# [11] = Embodiment 5, FIG. 7B, MH medium
molecule,measurement,setting,value
"CN[C@H](CC(C)C)C(=O)N[C@H]1C(=O)N[C@@H](CC(N)=O)C(=O)N[C@H]2C(=O)N[C@H]3C(=O)N[C@H](C(=O)N[C@H](C(=O)O)c4cc(O)cc(O)c4-c4cc3ccc4O)[C@H](O)c3ccc(c(Cl)c3)Oc3cc2cc(c3O[C@@H]2O[C@H](CO)[C@@H](O)[C@H](O)[C@H]2O[C@H]2C[C@](C)(N)[C@H](O)[C@H](C)O2)Oc2ccc(cc2Cl)[C@H]1O [vancomycin, reference compound]",MIC,"[1]; Embodiment 4, FIG. 6B",21.54 nmol
gentamicin,MIC,[2]; [8],greater than 512 μg/ml
same,MIC in terms of molecular weight standard,[2],greater than 890 nMol
same,MIC,"[2]; Embodiment 4, FIG. 6D",> 889.4 nmol
same,survival rate in 8 days,[3],50%
C[C@H]1COc2c(N3CCN(C)CC3)c(F)cc3c(=O)c(C(=O)O)cn1c23 [levofloxacin],MIC in terms of molecular weight standard,[2],43.2 nmol
same,MIC,"[2]; Embodiment 4, FIG. 6D",43.2 nmol
same,MIC,[2]; [9],8 µg/mL
"CC1(C)S[C@@H]2[C@H](NC(=O)[C@H](N)c3ccccc3)C(=O)N2[C@H]1C(=O)O [ampicillin, reference compound]",MIC,[4],1.35 nmol
same,MIC,"[1]; Embodiment 4, FIG. 6B",10.78 nmol
same,MIC,[5]; [10],21.55 nmol
CC(C)(O/N=C(\C(=O)N[C@@H]1C(=O)N2C(C(=O)[O-])=C(C[n+]3ccccc3)CS[C@H]12)c1csc(N)n1)C(=O)O [ceftazidime],MIC in terms of molecular weight standard,[2],29.3 nmol
same,MIC,"[2]; Embodiment 4, FIG. 6D",29.3 nmol
same,MIC,[2]; [9],16 µg/mL
same,MIC,[4],3.02 nmol
"NNC(=O)c1ccncc1 [isoniazid, reference compound]",weight of mice during experiment,[6],rise
"Cc1onc(-c2ccccc2)c1C(=O)N[C@@H]1C(=O)N2[C@@H]1SC(C)(C)[C@@H]2C(=O)O [oxacillin, reference compound]",MIC,[5]; [10],14.1 nmol
penicillin,death of mice (survival outcome in words),[3],all died in two days
"PMC-AM1: Fusion of antibody mimetic AM1 (VHCDR1-VHFR2-VLCDR3, Seq ID No.2) to C-terminus of Colicin Ia; Seq ID No.6 (protein, The amino acid sequence of antibiotic PMC-AM1) SDPVRITNPGAESLGYDSDGHEIMAVDIYVNPPRVDVFHGTPPAWSSFGNKTIWGGNEWVDDSPTRSDIEKRDKEITAYKNTLSAQQKENENKRTEAGKRLSAAIAAREKDENTLKTLRAGNADAADITRQEFRLLQAELREYGFRTEIAGYDALRLHTESRMLFADADSLRISPREARSLIEQAEKRQKDAQNADKKAADMLAEYERRKGILDTRLSELEKNGGAALAVLDAQQARLLGQQTRNDRAISEARNKLSSVTESLNTARNALTRAEQQLTQQKNTPDGKTIVSPEKFPGRSSTNHSIVVSGDPRFAGTIKITTSAVIDNRANLNYLLSHSGLDYKRNILNDRNPVVTEDVEGDKKIYNAEVAEWDKLRQRLLDARNKITSAESAVNSARNNLSARTNEQKHANDALNALLKEKENIRNQLSGINQKIAEEKRKQDELKATKDAINFTTEFLKSVSEKYGAKAEQLAREMAGQAKGKKIRNVEEALKTYEKYRADINKKINAKDRAAIAAALESVKLSDISSNLNRFSRGLGYAGKFTSLADWITEFGKAVRTENWRPLFVKTETIIAGNAATALVALVFSILTGSALGIIGYGLLMAVTGALIDESLVEKANKFWGISYWLHWIKQRPGQGLWIGSQSTHVPRT","bacteria growth (bacteriostasis efficacy, growth curve)",[7],can only be restrained by PMC-AM1
same,MIC,[2]; [8],8 µg/mL
same,MIC in terms of molecular weight standard,[2],0.23 nmol
same,"antibacterial effect stronger than ceftazidime, levofloxacin and gentamicin","[2]; Embodiment 3, ratio of molar MICs",127 to 3800 times and 127-3800 times
same,MIC,"[2]; Embodiment 4, FIG. 6D",0.91 nmol
same,MIC,"[2]; Embodiment 5, FIG. 7C",0.23 nmol
same,MIC,[4],0.11 nmol
same,MIC,"[1]; Embodiment 4, FIG. 6B",0.23 nmol
same,MIC,"[1]; Embodiment 5, FIG. 7A",0.23 nmol
same,MIC,[5]; [10],0.06 nmol
same,MIC,[5]; [11],0.06 nmol
same,survival rate in 8 days,[3],90%
same,lung by microscope (pathological section),[6],intact but had a little of cellular infiltration in parts
same,weight of mice during experiment,[6],rise
same,"observation of the mice's lung (TB nodules, necrosis)","[6]; mouse, in vivo, ip","intact, and had no nodules and necrosis of tuberculosis; also recorded: no TB nodules and necrosis"
"Colicin Ia (protein, UniProt P06716 1-626, looked up, Wild-type bacterial toxin secreted by E. coli forming ion channels) Colicin-Ia: MSDPVRITNPGAESLGYDSDGHEIMAVDIYVNPPRVDVFHGTPPAWSSFGNKTIWGGNEWVDDSPTRSDIEKRDKEITAYKNTLSAQQKENENKRTEAGKRLSAAIAAREKDENTLKTLRAGNADAADITRQEFRLLQAELREYGFRTEIAGYDALRLHTESRMLFADADSLRISPREARSLIEQAEKRQKDAQNADKKAADMLAEYERRKGILDTRLSELEKNGGAALAVLDAQQARLLGQQTRNDRAISEARNKLSSVTESLNTARNALTRAEQQLTQQKNTPDGKTIVSPEKFPGRSSTNHSIVVSGDPRFAGTIKITTSAVIDNRANLNYLLSHSGLDYKRNILNDRNPVVTEDVEGDKKIYNAEVAEWDKLRQRLLDARNKITSAESAVNSARNNLSARTNEQKHANDALNALLKEKENIRNQLSGINQKIAEEKRKQDELKATKDAINFTTEFLKSVSEKYGAKAEQLAREMAGQAKGKKIRNVEEALKTYEKYRADINKKINAKDRAAIAAALESVKLSDISSNLNRFSRGLGYAGKFTSLADWITEFGKAVRTENWRPLFVKTETIIAGNAATALVALVFSILTGSALGIIGYGLLMAVTGALIDESLVEKANKFWGI",MIC,"[2]; Embodiment 5, FIG. 7C",0.91 nmol
same,MIC,"[1]; Embodiment 5, FIG. 7A",0.91 nmol
same,MIC,[5]; [11],0.23 nmol
same,lung by microscope (pathological section),[6],the injury was little slighter than the control mouse's
same,mice died before sacrifice (from the forth week),"[6]; mouse, in vivo",1 mouse
